Measurements as given in article PMC4474532 (The EMBO Journal, 2015).

B1: mouse PERK luminal domain (residues 101–399) (domain or fragment, UniProt Q9Z2B5 101-399, looked up)
chain: LVIISTLDGRIAALDAENDGKKQWDLDVGSGSLVSSSLSKPEVFGNKMIIPSLDGDLFQWDRDRESMEAVPFTVESLLESSYKFGDDVVLVGGKSLITYGLSAYSGKLRYICSALGCRRWDSDEMEEEEDILLLQRTQKTVRAVGPRSGSEKWNFSVGHFELRYIPDMETRAGFIESTFKPGGNKEDSKIISDVEEQEATMLDTVIKVSVADWKVMAFSRKGGRLEWEYQFCTPIASAWLVRDGKVIPISLFDDTSYTASEEALGDEEDIVEAARGATENSVYLGMYRGQLYLQSSVRV
B2: human PERK luminal domain (residues 105–403) (domain or fragment, UniProt Q9NZJ5 105-403, looked up)
chain: LVIISTLDGRIAALDPENHGKKQWDLDVGSGSLVSSSLSKPEVFGNKMIIPSLDGALFQWDQDRESMETVPFTVESLLESSYKFGDDVVLVGGKSLTTYGLSAYSGKVRYICSALGCRQWDSDEMEQEEDILLLQRTQKTVRAVGPRSGNEKWNFSVGHFELRYIPDMETRAGFIESTFKPNENTEESKIISDVEEQEAAIMDIVIKVSVADWKVMAFSKKGGHLEWEYQFCTPIASAWLLKDGKVIPISLFDDTSYTSNDDVLEDEEDIVEAARGATENSVYLGMYRGQLYLQSSVRI

Legend:
[1] = biological target: the molecule itself; test: AUC; sedimentation velocity, 20°C, PERK LD proteins at 30 μM; 50 mM HEPES pH 7.8, 200 mM NaCl, 2 mM TCEP; c(s) by Sedfit; dimer to tetramer equilibrium
[2] = biological target: the molecule itself; test: crystal structure; mouse PERK LD, untagged, 20 mg/ml, hanging drops, 0.1 M MES/imidazole pH 6.5, NPS mix, 12.5% PEG1000, 12.5% PEG3350, 20% MPD, 18°C; 3.3 Å
[3] = biological target: the molecule itself; test: SAXS; H. sapiens PERK LD 1.25 mg/ml (results: 1–5 mg/ml); 50 mM HEPES pH 7.8, 200 mM NaCl, 2 mM TCEP; profiles computed from the crystal structures fitted with OLIGOMER
[4] = biological target: the molecule itself; test: crystal structure; human PERK LD, untagged, 5 mg/ml, hanging drops, 0.1 M Tris pH 8.5, 0.2 M MgCl2, 25% w/v PEG3350, 7% glycerol, 18°C; tungstate MAD; 3.1 Å

| Protein | dimer to tetramer ratio [1] | stoichiometry N [1] | stoichiometry N [2] | dimer to tetramer ratio [3] | stoichiometry N [3] | stoichiometry N [4] |
| --- | --- | --- | --- | --- | --- | --- |
| B1 | ~1.5 dimer:tetramer | 4 | 2 | – | – | – |
| B2 | – | – | – | 1.5 dimer:tetramer | 2 | 4 |
